The record followed here is patent US20110275122A1 (Amgen, published 2011).

The target in one test is T1, c-mpl receptor (Homo sapiens (Human), UniProt P40238 26-491, The MPL used for panning was biotinylated; the biotin site is not stated and is not carried by the letters.).
T1 construct: also called TPO receptor
T1 sequence: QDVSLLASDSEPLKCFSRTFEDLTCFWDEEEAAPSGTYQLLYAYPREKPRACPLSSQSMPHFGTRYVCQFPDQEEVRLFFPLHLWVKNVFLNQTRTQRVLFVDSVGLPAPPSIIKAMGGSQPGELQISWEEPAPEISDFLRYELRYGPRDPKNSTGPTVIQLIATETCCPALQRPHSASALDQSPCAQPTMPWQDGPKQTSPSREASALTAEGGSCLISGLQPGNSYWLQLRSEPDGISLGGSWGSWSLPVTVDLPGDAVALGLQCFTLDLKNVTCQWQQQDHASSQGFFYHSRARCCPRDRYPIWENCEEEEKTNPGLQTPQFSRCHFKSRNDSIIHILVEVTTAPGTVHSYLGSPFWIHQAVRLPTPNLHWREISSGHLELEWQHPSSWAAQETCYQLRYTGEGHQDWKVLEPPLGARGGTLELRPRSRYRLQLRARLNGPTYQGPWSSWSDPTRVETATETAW
The test is described as follows: phage-ELISA. In general terms: In an ELISA, binding on a coated surface is turned into a signal by an enzyme label.

The target in test [1] is T2, human mpl receptor (human, UniProt P40238 26-635).
T2 sequence (looked up): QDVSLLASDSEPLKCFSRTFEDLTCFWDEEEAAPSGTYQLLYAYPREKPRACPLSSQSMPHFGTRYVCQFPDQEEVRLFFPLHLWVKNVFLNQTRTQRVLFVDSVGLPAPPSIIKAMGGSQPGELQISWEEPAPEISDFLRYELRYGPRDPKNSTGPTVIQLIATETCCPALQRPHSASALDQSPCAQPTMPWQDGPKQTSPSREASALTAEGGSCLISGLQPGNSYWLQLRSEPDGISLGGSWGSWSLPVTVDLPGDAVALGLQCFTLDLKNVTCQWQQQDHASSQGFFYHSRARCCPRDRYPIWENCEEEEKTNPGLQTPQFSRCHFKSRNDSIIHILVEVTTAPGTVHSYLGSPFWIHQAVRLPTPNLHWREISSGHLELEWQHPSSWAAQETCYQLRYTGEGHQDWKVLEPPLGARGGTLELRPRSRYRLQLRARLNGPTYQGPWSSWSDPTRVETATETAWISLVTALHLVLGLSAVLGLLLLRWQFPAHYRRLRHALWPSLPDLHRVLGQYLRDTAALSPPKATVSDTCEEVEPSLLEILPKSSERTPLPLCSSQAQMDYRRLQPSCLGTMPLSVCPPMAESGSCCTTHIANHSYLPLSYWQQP
The test is described as follows: cell-based or functional assay.

The target in test [2] is T2, human mpl receptor. As to the kind of experiment: cell-based or functional assay. This is another data set of the same source.

Numbering of substitutions follows the chain as printed.

IEGPTLHEWLLYRRAHS [SEQ ID NO: 335] came in with a Relative activity in the test with c-mpl receptor of 73.7.
On the same count and under the same terms, next, IEGWNPWRGAASRV [SEQ ID NO: 310]: 33.9; IEGLLSQLWQAARA [SEQ ID NO: 330]: 7.11.
The same measure, in the same setting: then IEGPTLHEWLALLRSHS [SEQ ID NO: 333], with 80.7.
Molecule IEGPTLHEWLAERRKHS [SEQ ID NO: 332] gave a Relative activity with c-mpl receptor of 88.4.
Turning to IEGPTFKQWQAWRRWHS [SEQ ID NO: 315], the Relative activity in the test with c-mpl receptor is 28.1.
On the same count and under the same terms, next, IEGPTFKQWQKWRLSHS [SEQ ID NO: 323]: 14.7; IEGPTFKQWQAMRRHS [SEQ ID NO: 313]: 28.4; IEGWQEGRQSAARA [SEQ ID NO: 324]: 13.8.
IEGPTFKQWQRLRKNHS [SEQ ID NO: 329]: the Relative activity with c-mpl receptor was determined as 12.1.
Same read-out and setting: next, IEVWQSHWYQAARALESTSSRLLPMRPPPSICAQIEGPTLPQRMAARA [SEQ ID NO: 316]: 24.9; IEGMVKLGVIRLLVL [SEQ ID NO: 314]: 28.3.
On the same count and under the same terms, next, IEGPTFKQWQAMRKNHS [SEQ ID NO: 322]: 16.4.

B1: Fc-Loop (Sym) (SEQ ID NO: 9) (Fc fusion)
chain: MDKTHTCPPCPAPELLGGPSVFLFPPKPKDTLMISRTPEVTCVVVDVSHEDPEVKFNWYVDGVEVHNAKTKPREEQYNSTYRVVSVLTVLHQDWLNGKEYKCKVSNKALPAPIEKTISKAKGQPREPQVYTLPPSRDELGGQGCSSGGPTLREWQQCRRMQHSGGTKNQVSLTCLVKGFYPSDIAVEWESNGQPENNYKTTPPVLDSDGSFFLYSKLTVDKSRWQQGNVFSCSVMHEALHNHYTQKSLSLSPGK
As for B1, the “In vitro EC50” value with human mpl receptor [1] was determined as 13.7 pM. In addition, the “EC50 on 32Dc123/Mpl” value with human mpl receptor [2] turned out to be 15 pM.

B2: Fc-Loop (Sym) (SEQ ID NO: 243) (Fc fusion)
chain: B1 chain with R158V
For B2, in the test with human mpl receptor [1], the “In vitro EC50” value is 9.9 pM. In the test with human mpl receptor [2], the “EC50 on 32Dc123/Mpl” value is 10 pM.

B3: Fc-Loop (Sym)(SEQ ID NO: 244) (Fc fusion)
chain: B1 chain with M160A
On to B3, for which, in the test with human mpl receptor [2], the “EC50 on 32Dc123/Mpl” value turned out to be 12 pM.
In the test with c-mpl receptor, IEGWTRRQWLAARA [SEQ ID NO: 311] returned a Relative activity of 33.3.
Same read-out and setting: then IEGPTLHEWLRQRRQHS [SEQ ID NO: 336], with 64.5.
For IEGWIWRQWLMQTLWHS [SEQ ID NO: 321], the Relative activity with c-mpl receptor is 16.4.
On the same count and under the same terms, next, IEGPTFKQWQKLRLGHS [SEQ ID NO: 319]: 17.9.
The same measure, in the same setting: next, IEGPTFKQWQLMGFPHS [SEQ ID NO: 320]: 17.8; IEGPTFKQWQALRKRHS [SEQ ID NO: 318]: 21.6.

B4: Fc-Loop (Asym) (SEQ ID NO: 9) (Fc fusion)
chain: MDKTHTCPPCPAPELLGGPSVFLFPPKPKDTLMISRTPEVTCVVVDVSHEDPEVKFNWYVDGVEVHNAKTKPREEQYNSTYRVVSVLTVLHQDWLNGKEYKCKVSNKALPAPIEKTISKAKGQPREPQVYTLPPSRDELGGGGQGCSSGGPTLREWQQCRRMQHSGGTKNQVSLTCLVKGFYPSDIAVEWESNGQPENNYKTTPPVLDSDGSFFLYSKLTVDKSRWQQGNVFSCSVMHEALHNHYTQKSLSLSPGK
For the molecule B4, the “In vitro EC50” value in the test with human mpl receptor [1] worked out at 12.7 pM. In addition, the “EC50 on 32Dc123/Mpl” value with human mpl receptor [2] worked out at 13 pM.

B5: Fc-Loop (Asym) (SEQ ID NO: 243) (Fc fusion)
chain: B4 chain with R160V
As for B5, in the test with human mpl receptor [1], the “In vitro EC50” value was 5.7 pM. Also, the “EC50 on 32Dc123/Mpl” value with human mpl receptor [2] is 6 pM.
In turn, IEGPTLHEWLAQRREHS [SEQ ID NO: 334] gave a Relative activity with c-mpl receptor of 75.9.

B6: SEQ ID NO: 326 (peptide)
peptide: IEGNYWFWQQVGQENTLSREWIQTLGQKYWYRPPSICAQIEGWSRHQHYSAMSGHS
Turning to B6, in the test with c-mpl receptor, the Relative activity was determined as 13.2.
Consider IEGPTFKQWQRWLKYHS [SEQ ID NO: 325], for which the Relative activity with c-mpl receptor is 13.5.
The same measure, in the same setting: next, IEGPTFKQWQLWRLQHS [SEQ ID NO: 327]: 12.6; IEGPSLPEWLHVWRHHS [SEQ ID NO: 331]: 117.
